This is an account of results in patent publication US20100028862A1 (REPLIDYNE, published 2010).

One data set deals with DnaA (Escherichia coli). To be noted: minimum DnaA concentration giving plateau in origin reconstitution assay; ATP, Mg; gel shift and filter binding mentioned without values.
Data set [1] has as its system DNA polymerase III core (alpha-epsilon-theta) (Yersinia pestis).
Data set [2] has as its system DnaG primase (Yersinia pestis).
Data set [3] has as its system PolC (Streptococcus pyogenes). As to conditions: reconstitution assay; template inferred.
Data set [4] has as its target DNA polymerase III alpha-epsilon (DnaE/DnaQ) (Pseudomonas aeruginosa) (UniProt Q9HXZ1+G3XD54). As to conditions: E. coli DnaG-primed holoenzyme assay, 30 C.
For data set [5], the system named is DnaG primase (Pseudomonas aeruginosa). To be noted: reconstituted P. aeruginosa holoenzyme assay, 22 C.
Data set [6] deals with T1, P. aeruginosa χ subunit (untagged) (Pseudomonas aeruginosa, UniProt O68823 2-142).
T1 construct: holC, PA3832, 142 amino acids; also called HolC; chi
T1 sequence: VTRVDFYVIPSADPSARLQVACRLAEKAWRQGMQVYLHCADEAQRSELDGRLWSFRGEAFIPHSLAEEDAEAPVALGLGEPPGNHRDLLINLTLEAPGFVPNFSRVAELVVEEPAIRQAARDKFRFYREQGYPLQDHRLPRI
As to the kind of experiment: co-expression and co-purification (ammonium sulfate, Q Sepharose).

Data set [7] concerns the target T2, N-terminally hexa-His-tagged P. aeruginosa χ (Pseudomonas aeruginosa, UniProt O68823 2-142).
T2 construct: also called immobilized tagged P. aeruginosa χ; N-terminally His-tagged HolC; not shown: N-terminal hexa-His tag encoded by vector pA1-NB-KpnI
T2 sequence: T1 sequence
The data set is described as follows: Ni-NTA magnetic bead pull-down with immobilized His-tagged χ, imidazole elution.

Take “M13 ssDNA with 306-nt insert containing DnaA-box hairpin”: in the data set on DnaA (Escherichia coli), the activity is 76 nM.

With M13Gori ssDNA, the activity in data set [1] was 1.1e+07 U/mg; in data set [2] it was 5.8e+06 U/mg; in data set [3], 500000 U/mg; in data set [4] it was 4.1e+06 U/mg; in data set [5], 594000 U/mg.

B1: PA4679N45 protein, P. aeruginosa DNA polymerase III holoenzyme ψ subunit (other)
chain: LIEEQRRRAFLGAMQITSWLPRQPLPFAAPSRPELLETPPREEPAVPVRARAAIDAPQARVPQAEAPASAPSVAPAAPVEGRGIPISLPKPGAPAAKKAEPVAPVEEAPAESPAVQAPPPRFALQLLQAGSCTLLVELPTGEPFASRDPGYLLLRDLLRAAGLPDSPRLIGEPVRWPLLARGNLDQGPQAALEFVQSFVAARMEESERSRCLWLVGLPAIRFAGEGDEGSLFRELQVDGLGATWAVPGLEALMEEPALKGELWRAMRRVRQRWSSEIQ
notes: also called HolD; psi
For B1, the binding result in data set [6] and in data set [7] was “binds” throughout.
